Source: IntAct's records for PubMed 16280320

B1: Dolichol-phosphate mannosyltransferase subunit 3 (Cricetulus griseus (Chinese hamster)), Q4LDX8 (parent)
chain: MTKLAQWLWGLALLGSAWAALTMGALGLELPFPCQEVLWPLPAYLLVSAGCYALGTVGYRVATFHDCEDAARELQSQILEARADLARRGLRF

Variants of: B1
Settings: with dpm1_human DPM1, O60762
Chain of dpm1_human DPM1, O60762 (O60762 whole entry): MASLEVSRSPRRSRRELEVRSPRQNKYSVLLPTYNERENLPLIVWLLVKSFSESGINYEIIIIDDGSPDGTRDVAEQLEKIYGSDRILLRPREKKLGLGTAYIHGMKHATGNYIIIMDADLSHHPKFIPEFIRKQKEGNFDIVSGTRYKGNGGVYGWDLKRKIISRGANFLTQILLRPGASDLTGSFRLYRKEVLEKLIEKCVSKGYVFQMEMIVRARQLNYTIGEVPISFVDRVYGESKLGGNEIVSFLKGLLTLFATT
For MTKLAQWLWGLALLGSAWAALTMGALGLELPFPCQEVLWPLPAYLLVSAGCYALGTVGYRVATFHDCEDAARESQSQTLEARADSARRGLRF [L74S;I78T;L85S], the “effect of a mutation on the interaction” value was “disrupting interaction”.
